This note sets out measurements from patent US20240016952A1 (published 2024).

Residue numbers refer to the chain shown, from its start. In names and notes the source's numbering stands.

Test [1] addresses T1, human transferrin receptor 1 (hTfR1) (human, UniProt P02786 89-760).
T1 construct: Recombinant human TfR1; also called huTfR1; Human TfR1
In words: average KD, antibody alone; method not given.

In test [2] the target is T2, cynomolgus monkey transferrin receptor 1 (cTfR1) (cynomolgus monkey (Macaca fascicularis), UniProt Q5RDH6 89-760 (Pongo abelii entry), limits assumed).
T2 construct: Recombinant cynomolgus TfR1; also called cyTfR1; cyno TfR1
T2 chain: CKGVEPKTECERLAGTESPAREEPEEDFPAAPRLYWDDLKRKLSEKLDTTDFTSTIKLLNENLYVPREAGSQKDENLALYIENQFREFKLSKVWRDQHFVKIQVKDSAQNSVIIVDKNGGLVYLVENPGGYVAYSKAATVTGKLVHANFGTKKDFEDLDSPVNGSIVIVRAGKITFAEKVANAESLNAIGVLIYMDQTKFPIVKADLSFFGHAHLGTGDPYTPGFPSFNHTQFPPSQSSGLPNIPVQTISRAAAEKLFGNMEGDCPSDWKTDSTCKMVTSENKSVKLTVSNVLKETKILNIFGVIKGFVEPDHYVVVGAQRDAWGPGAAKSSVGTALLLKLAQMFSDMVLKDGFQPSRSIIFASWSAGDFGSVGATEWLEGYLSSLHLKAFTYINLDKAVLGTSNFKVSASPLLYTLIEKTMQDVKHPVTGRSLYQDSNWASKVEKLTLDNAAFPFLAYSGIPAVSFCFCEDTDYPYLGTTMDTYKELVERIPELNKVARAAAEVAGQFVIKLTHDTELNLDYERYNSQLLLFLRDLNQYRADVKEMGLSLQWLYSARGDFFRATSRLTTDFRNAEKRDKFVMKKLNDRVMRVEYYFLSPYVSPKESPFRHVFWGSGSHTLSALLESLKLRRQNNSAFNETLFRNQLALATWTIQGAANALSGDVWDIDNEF
In words: average KD, antibody alone; method not given.

Test [3] concerns the target T1, human transferrin receptor 1 (hTfR1). In words: Carterra LSA SPR, IgG captured on anti-IgG chip, hTfR1 injected, 25 C, 1:1 fit.
Test [4] has as its target T2, cynomolgus monkey transferrin receptor …. The test is described as follows: ELISA, cyno TfR1, Fab, day 0 of thermal stability test. For orientation: ELISA stands for enzyme-linked immunosorbent assay.
The target is the same in test [5]. In words: ELISA on plate-coated cyno TfR1, unconjugated Fab.
Test [6] has the same target. In words: ELISA, cyno TfR1, Fab after 9 days at 40 C.
For test [7] the target is unchanged. The test is described as follows: surface plasmon resonance.
Test [8] deals with T3, TfR1 (species not stated; Biacore analyses of Table 14 and Table 16) (Homo sapiens (Human), UniProt P02786 89-760).
T3 construct: also called target antigen
In words: Biacore kinetic analysis. Also noted: unit not given here.

B1: 15G11 (control anti-TfR1 antibody) (antibody, V domains shown)
VH: QVQLQQPGAELVKPGASVKLSCKASGYTFTSYWMHWVKQRPGQGLEWIGEINPTNGRTNYIEKFKSKATLTVDKSSSTAYMQLSSLTSEDSAVYYCARGTRAYHYWGQGTSVTVSS
VL: DIQMTQSPASLSVSVGETVTITCRASDNLYSNLAWYQQKQGKSPQLLVYDATNLADGVPSRFSGSGSGTQYSLKINSLQSEDFGTYYCQHFWGTPLTFGAGTKLELK
In general, Kd refers to the free concentration of one partner at which half of the binding sites on the other are occupied at equilibrium, for simple one-to-one binding. On to B1, for which the equilibrium dissociation constant (Kd) in test [1] is 0.8 nM; in test [2], 1 nM; in test [3] it was 0.283 nM.

B2: 5-H12 mouse monoclonal anti-TfR1 antibody (antibody, V domains shown)
VH: QIQLQQSGPELVRPGASVKISCKASGYSFTDYCINWVNQRPGQGLEWIGWIYPGSGNTRYSERFKGKATLTVDTSSNTAYMQLSSLTSEDSAVYFCAREDYYPYHGMDYWGQGTSVTVSS
VL: DIVLTQSPTSLAVSLGQRATISCRASESVDGYDNSFMHWYQQKPGQPPKLLIFRASNLESGIPARFSGSGSRTDFTLTINPVEAADVATYYCQQSSEDPWTFGGGTKLEIK
notes: Mouse mAb (IgG)
B2: the Kd in test [2] is 12 nM.

B3: humanized anti-TfR Fab 3M12 VH4/Vk3 (Fab, V domains shown)
VH: QVQLQESGPGLVKPSQTLSLTCTVTGYSITSGYYWNWIRQPPGKGLEWIGYITFDGANNYNPSLKNRVSISRDTSKNQFSLKLSSVTAEDTATYYCTRSSYDYDVLDYWGQGTTVTVSS
VL: DIQMTQSPSSLSASVGDRVTITCRASQDISNFLNWYQQKPGQPVKLLIYYTSRLHSGVPSRFSGSGSGTDFTLTISSLQPEDFATYYCQQGHTLPYTFGQGTKLEIKR
Broadly, the kon is a measure of how fast the partners come together. In the case of B3, in test [4], the “Binding affinity cyno TfR1 d 0” value came to 2.2 nM. In addition, the “Fab binding affinity ELISA” value in test [5] was found to be 2.2 nM. In test [6], the “Binding affinity cyno TfR1 d 9” value is 16.4 nM. In test [7], binding was put at a Kd of 5.18 nM, the koff came to 0.000476 s⁻¹ and the kon was determined as 91900 M⁻¹ s⁻¹.

B4: humanized anti-TfR Fab 3A4 VH3 (N54S)/Vk4 (Fab, V domains shown)
VH: EVQLVQSGSELKKPGASVKVSCTASGFNIKDDYMYWVRQPPGKGLEWIGWIDPESGDTEYASKFQDRVTVTADTSTNTAYMELSSLRSEDTAVYYCTLWLRRGLDYWGQGTLVTVSS
VL: DIVMTQSPLSLPVTPGEPASISCRSSKSLLHSNGYTYLFWFQQRPGQSPRLLIYRMSNLASGVPDRFSGSGSGTDFTLKISRVEAEDVGVYYCMQHLEYPFTFGGGTKVEIKR
For B4, the “Binding affinity cyno TfR1 d 0” value in test [4] came out at 398 nM. For the same molecule, the “Fab binding affinity ELISA” value in test [5] worked out at 398 nM. In test [8], the koff is 65.6. Moreover, the “Binding affinity cyno TfR1 d 9” value in test [6] amounted to 248 nM.

B5: humanized anti-TfR Fab 3A4 VH3/Vk4 (Fab, V domains shown)
VH: B4 VH with S55N
VL: B4 VL
With B5, the “Binding affinity cyno TfR1 d 0” value in test [4] came to 122 nM. Besides, the “Fab binding affinity ELISA” value in test [5] is 122 nM. This molecule also showed a koff in test [8] of 115. In addition, in test [6], the “Binding affinity cyno TfR1 d 9” value was 878 nM.
